Experimental data reported in IntAct's records for PubMed 20505668.

B1: Isocitrate dehydrogenase kinase/phosphatase (Escherichia coli (strain K12)), P11071 (parent)
chain: MPRGLELLIAQTILQGFDAQYGRFLEVTSGAQQRFEQADWHAVQQAMKNRIHLYDHHVGLVVEQLRCITNGQSTDAAFLLRVKEHYTRLLPDYPRFEIAESFFNSVYCRLFDHRSLTPERLFIFSSQPERRFRTIPRPLAKDFHPDHGWESLLMRVISDLPLRLRWQNKSRDIHYIIRHLTETLGTDNLAESHLQVANELFYRNKAAWLVGKLITPSGTLPFLLPIHQTDDGELFIDTCLTTTAEASIVFGFARSYFMVYAPLPAALVEWLREILPGKTTAELYMAIGCQKHAKTESYREYLVYLQGCNEQFIEAPGIRGMVMLVFTLPGFDRVFKVIKDRFAPQKEMSAAHVRACYQLVKEHDRVGRMADTQEFENFVLEKRHISPALMELLLQEAAEKITDLGEQIVIRHLYIERRMVPLNIWLEQVEGQQLRDAIEEYGNAIRQLAAANIFPGDMLFKNFGVTRHGRVVFYDYDEICYMTEVNFRDIPPPRYPEDELASEPWYSVSPGDVFPEEFRHWLCADPRIGPLFEEMHADLFRADYWRALQNRIREGHVEDVYAYRRRQRFSVRYGEMLF
partner: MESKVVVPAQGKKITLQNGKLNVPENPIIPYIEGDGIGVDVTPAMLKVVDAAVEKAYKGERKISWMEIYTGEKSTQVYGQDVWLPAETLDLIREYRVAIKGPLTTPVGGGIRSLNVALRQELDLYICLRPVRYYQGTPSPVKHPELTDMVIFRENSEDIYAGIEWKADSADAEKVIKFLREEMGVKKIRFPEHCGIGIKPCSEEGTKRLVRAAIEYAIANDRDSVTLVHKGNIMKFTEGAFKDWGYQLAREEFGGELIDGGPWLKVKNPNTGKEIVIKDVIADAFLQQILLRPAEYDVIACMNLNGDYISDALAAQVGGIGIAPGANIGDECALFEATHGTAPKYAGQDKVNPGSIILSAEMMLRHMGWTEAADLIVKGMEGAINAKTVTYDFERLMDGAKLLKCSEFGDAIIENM

Variants of: B1
Settings: with idh_ecoli icd

Effect of a mutation on the interaction, disrupting interaction:
N462A
K336A
E497K;E499K
D475A

Variants of: B1
Settings: with idh_ecoli icd
Remark: another data set of the same source

Effect of a mutation on the interaction, disrupting interaction:
D477A
K346E
